12 molecules from patent US20220204601A1 (ADEL, published 2022) can be followed below.

Ends that are not written are not given here.

Experiment [1] has as its target T1, K280-ac protein fragment (human).
T1 construct: also called mAC
T1 peptide: VQIINK(Ac)KLDLSN
Briefly: ELISA on K280-ac coated at 250 ng/well, HRP anti-human IgG. The method, then: (§1) In addition, binding of the K280-ac protein fragment prepared in Preparation Example 1 with the ADEL-Y01h (v01 to v12) antibodies prepared in Preparation Example 2 was measured by ELISA.
(§2) First, plates were treated with the K280-ac protein fragment at 250 ng/well and reaction was allowed to proceed at 4° C. overnight. The next day, washing with a washing buffer was performed three times, and then treatment with a primary antibody was performed with 8 concentrations (2 μg, 1 μg, 0.5 μg, 0.25 μg, 0.12 μg, 0.06 μg, 0.03 μg, 0.01 μg). As a secondary antibody, HRP-labeled anti-human IgG antibody was used.
For orientation: In an ELISA, binding on a coated surface is turned into a signal by an enzyme label.

In experiment [2] the target is T2, Tau (Acetylation -).
T2 construct: also called non-Ac tau protein; non-acetylated wild type tau protein
Briefly: plate assay as drawn: capture Ab 1ug/well, antigen titrated.

The target of experiment [3] is T1, K280-ac protein fragment. The experiment is described as follows: ELISA, K280-ac coated at 250 ng/well. The method, then: as §1, §2

T2 sequence (tau protein, as listed by the source): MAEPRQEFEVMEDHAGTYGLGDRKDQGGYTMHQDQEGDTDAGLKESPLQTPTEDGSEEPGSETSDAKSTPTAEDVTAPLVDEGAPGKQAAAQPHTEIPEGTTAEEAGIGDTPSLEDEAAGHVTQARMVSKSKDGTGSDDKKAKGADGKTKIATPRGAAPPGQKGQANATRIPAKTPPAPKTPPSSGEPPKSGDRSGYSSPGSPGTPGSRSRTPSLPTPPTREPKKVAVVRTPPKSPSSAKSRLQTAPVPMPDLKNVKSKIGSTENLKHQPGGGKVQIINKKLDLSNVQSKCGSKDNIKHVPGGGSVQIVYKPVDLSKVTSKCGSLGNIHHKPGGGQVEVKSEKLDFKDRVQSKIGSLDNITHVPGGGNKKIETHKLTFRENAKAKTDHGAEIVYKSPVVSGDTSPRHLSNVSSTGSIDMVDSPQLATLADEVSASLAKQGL

B1: v12 (antibody, V domains shown)
VH: EVQLVESGGGLVQPGRSLRLSCTVSGDSITSGYWNWFRQAPGKGLEYVGYIRYSGRTYYNPSLKSRFTISRDTSKNIAYLQMNSLKTEDTAVYYCASVYFTYWGQGTLVTVSS
VL: EVVLTQSPGTLSLSPGERATLSCKSSQSLLDSDGKTYLNWYQQKPGQSPKRLISLVSKLDSGIPDRFSGSGSGTDFTLTISRLEPEDFAVYYCWQGSHFPYTFGQGTKLEIK
notes: also called Y01h01v12; ADEL-Y01h v12 antibody
For the molecule B1, in experiment [1], the “Absorbance at 450nm at 0.01ug/well” value came to 0.145, the “Absorbance at 450nm at 0.03ug/well” value is 0.398, the “Absorbance at 450nm at 0.06ug/well” value turned out to be 0.484 and the “Absorbance at 450nm at 0.12ug/well” value is 1.05. Moreover, in experiment [1], the “Absorbance at 450nm at 0.25ug/well” value worked out at 1.19, the “Absorbance at 450nm at 0.5ug/well” value worked out at 1.29, the “Absorbance at 450nm at 1ug/well” value is 1.58 and the “Absorbance at 450nm at 2ug/well” value worked out at 1.41.

B2: ADEL-Y01h v09 antibody (antibody, V domains shown)
VH: EVTLKESGPTLVKPTQTLTLTCTVSGDSITSGYWNWIRQPPGKALEYLAYIRYSGRTYYNPSLKSRLTITRDTSKNQVVLTMTNMDPVDTATYYCASVYFTYWGQGTLVTVSS
VL: B1 VL
notes: Humanized antibody; It was detected with anti-human IgG; also called Y01h01v09
With B2, in experiment [1], the “Absorbance at 450nm at 0.01ug/well” value stood at 0.251, the “Absorbance at 450nm at 0.03ug/well” value amounted to 0.542, the “Absorbance at 450nm at 0.06ug/well” value amounted to 0.75 and the “Absorbance at 450nm at 0.12ug/well” value worked out at 1.22. Also, in experiment [1], the “Absorbance at 450nm at 0.25ug/well” value amounted to 1.32, the “Absorbance at 450nm at 0.5ug/well” value is 1.45, the “Absorbance at 450nm at 1ug/well” value turned out to be 1.61 and the “Absorbance at 450nm at 2ug/well” value was 1.69.

B3: ADEL-Y01h v03 antibody (antibody, V domains shown)
VH: EVQLQESGPGLVKPSQTLSLTCTVSGDSITSGYWNWIRQPPGKGLEYIGYIRYSGRTYYNPSLKSRVTISRDTSKNQFSLKLSSVTAADTAVYYCASVYFTYWGQGTLVTVSS
VL: B1 VL
notes: Humanized antibody; It was detected with anti-human IgG; also called Y01h01v03
On to B3, for which, in experiment [1], the “Absorbance at 450nm at 0.01ug/well” value is 0.0815, the “Absorbance at 450nm at 0.03ug/well” value was determined as 0.17, the “Absorbance at 450nm at 0.06ug/well” value was determined as 0.302 and the “Absorbance at 450nm at 0.12ug/well” value came out at 0.641. Also, in experiment [1], the “Absorbance at 450nm at 0.25ug/well” value was determined as 1.06, the “Absorbance at 450nm at 0.5ug/well” value worked out at 1.51, the “Absorbance at 450nm at 1ug/well” value was found to be 1.79 and the “Absorbance at 450nm at 2ug/well” value is 2.06.

B4: ADEL-Y01h v10 antibody (antibody, V domains shown)
VH: B1 VH
VL: DVVMTQSPLSLPVTLGQPASISCKSSQSLLDSDGKTYLNWFQQRPGQSPKRLISLVSKLDSGVPDRFSGSGSGTDFTLKISRVEAEDVGVYYCWQGSHFPYTFGQGTKLEIK
notes: Humanized antibody; It was detected with anti-human IgG; also called Y01h01v10
B4: in experiment [1], the “Absorbance at 450nm at 0.01ug/well” value is 0.568, the “Absorbance at 450nm at 0.03ug/well” value was 0.997, the “Absorbance at 450nm at 0.06ug/well” value came out at 1.23 and the “Absorbance at 450nm at 0.12ug/well” value was 1.65. In addition, in experiment [1], the “Absorbance at 450nm at 0.25ug/well” value came to 1.64, the “Absorbance at 450nm at 0.5ug/well” value was determined as 1.78, the “Absorbance at 450nm at 1ug/well” value was found to be 1.9 and the “Absorbance at 450nm at 2ug/well” value came to 1.87.

B5: v11 (antibody, V domains shown)
VH: B1 VH
VL: DVVMTQSPDSLAVSLGERATINCKSSQSLLDSDGKTYLNWYQQKPGQSPKRLISLVSKLDSGVPDRFSGSGSGTDFTLTISSLQAEDVAVYYCWQGSHFPYTFGQGTKLEIK
notes: also called Y01h01v11; ADEL-Y01h v11 antibody
In the case of B5, in experiment [1], the “Absorbance at 450nm at 0.01ug/well” value stood at 0.0085, the “Absorbance at 450nm at 0.03ug/well” value is 0.0225, the “Absorbance at 450nm at 0.06ug/well” value came to 0.027 and the “Absorbance at 450nm at 0.12ug/well” value stood at 0.0345. In experiment [1], the “Absorbance at 450nm at 0.25ug/well” value came out at 0.036, the “Absorbance at 450nm at 0.5ug/well” value was 0.0395, the “Absorbance at 450nm at 1ug/well” value was found to be 0.0455 and the “Absorbance at 450nm at 2ug/well” value amounted to 0.048. In experiment [1], the binding result is “no binding (tested: 2 ug/well)”.

B6: ADEL-Y01h v06 antibody (antibody, V domains shown)
VH: EVQLQQSGPGLVKPSQTLSLTCAVSGDSITSGYWNWIRQSPSRGLEWLGYIRYSGRTYYNPSLKSRITINRDTSKNQFSLQLNSVTPEDTAVYYCASVYFTYWGQGTLVTVSS
VL: B1 VL
notes: Humanized antibody; It was detected with anti-human IgG; also called Y01h01v06
For B6, in experiment [1], the “Absorbance at 450nm at 0.01ug/well” value amounted to 0.0585, the “Absorbance at 450nm at 0.03ug/well” value stood at 0.114, the “Absorbance at 450nm at 0.06ug/well” value is 0.265 and the “Absorbance at 450nm at 0.12ug/well” value came to 0.657. For the same molecule, in experiment [1], the “Absorbance at 450nm at 0.25ug/well” value turned out to be 1.09, the “Absorbance at 450nm at 0.5ug/well” value is 1.51, the “Absorbance at 450nm at 1ug/well” value was 1.76 and the “Absorbance at 450nm at 2ug/well” value came out at 2.05.

B7: ADEL-Y01h01_v01 antibody (antibody, V domains shown)
VH: B3 VH
VL: B4 VL
notes: Humanized ADEL-Y01m; It was detected with anti-human IgG; also called ADEL-Y01h v01
For the molecule B7, the binding result in experiment [2] was “no binding (tested: 100.00 (unit not printed))”. In experiment [1], the “Absorbance at 450nm at 0.01ug/well” value was found to be 0.731, the “Absorbance at 450nm at 0.03ug/well” value turned out to be 0.899, the “Absorbance at 450nm at 0.06ug/well” value came out at 1.1 and the “Absorbance at 450nm at 0.12ug/well” value worked out at 1.58. Besides, in experiment [1], the “Absorbance at 450nm at 0.25ug/well” value came to 1.93, the “Absorbance at 450nm at 0.5ug/well” value came to 2.07, the “Absorbance at 450nm at 1ug/well” value is 2.22 and the “Absorbance at 450nm at 2ug/well” value was determined as 2.42.

B8: ADEL-Y01h v04 antibody (antibody, V domains shown)
VH: B6 VH
VL: B4 VL
notes: Humanized antibody; It was detected with anti-human IgG; also called Y01h01v04
B8: in experiment [1], the “Absorbance at 450nm at 0.01ug/well” value stood at 0.354, the “Absorbance at 450nm at 0.03ug/well” value turned out to be 0.537, the “Absorbance at 450nm at 0.06ug/well” value was 0.822 and the “Absorbance at 450nm at 0.12ug/well” value turned out to be 1.43. Moreover, in experiment [1], the “Absorbance at 450nm at 0.25ug/well” value was 1.74, the “Absorbance at 450nm at 0.5ug/well” value is 2.04, the “Absorbance at 450nm at 1ug/well” value stood at 2.18 and the “Absorbance at 450nm at 2ug/well” value came out at 2.32.

B9: ADEL-Y01h v07 antibody (antibody, V domains shown)
VH: B2 VH
VL: B4 VL
notes: Humanized antibody; It was detected with anti-human IgG; also called Y01h01v07
As to B9, the binding result in experiment [3] is given as “binds”.

B10: ADEL-Y01h v02 antibody (antibody, V domains shown)
VH: B3 VH
VL: B5 VL
notes: Humanized antibody; It was detected with anti-human IgG; also called Y01h01v02
Take B10: in experiment [1], the “Absorbance at 450nm at 0.01ug/well” value turned out to be 0.103, the “Absorbance at 450nm at 0.03ug/well” value came to 0.203, the “Absorbance at 450nm at 0.06ug/well” value was 0.377 and the “Absorbance at 450nm at 0.12ug/well” value turned out to be 0.805. Further, in experiment [1], the “Absorbance at 450nm at 0.25ug/well” value was 1.12, the “Absorbance at 450nm at 0.5ug/well” value was 1.61, the “Absorbance at 450nm at 1ug/well” value amounted to 1.83 and the “Absorbance at 450nm at 2ug/well” value was 2.08.

B11: ADEL-Y01h v05 antibody (antibody, V domains shown)
VH: B6 VH
VL: B5 VL
notes: Humanized antibody; It was detected with anti-human IgG; also called Y01h01v05
Take B11: in experiment [1], the “Absorbance at 450nm at 0.01ug/well” value turned out to be 0.131, the “Absorbance at 450nm at 0.03ug/well” value came out at 0.224, the “Absorbance at 450nm at 0.06ug/well” value amounted to 0.431 and the “Absorbance at 450nm at 0.12ug/well” value is 0.908. Moreover, in experiment [1], the “Absorbance at 450nm at 0.25ug/well” value is 1.3, the “Absorbance at 450nm at 0.5ug/well” value worked out at 1.7, the “Absorbance at 450nm at 1ug/well” value was 1.85 and the “Absorbance at 450nm at 2ug/well” value worked out at 2.06.

B12: ADEL-Y01h v08 antibody (antibody, V domains shown)
VH: B2 VH
VL: B5 VL
notes: Humanized antibody; It was detected with anti-human IgG; also called Y01h01v08
On to B12, for which, in experiment [1], the “Absorbance at 450nm at 0.01ug/well” value stood at 0.015, the “Absorbance at 450nm at 0.03ug/well” value was found to be 0.041, the “Absorbance at 450nm at 0.06ug/well” value amounted to 0.0375 and the “Absorbance at 450nm at 0.12ug/well” value turned out to be 0.0745. Moreover, in experiment [1], the “Absorbance at 450nm at 0.25ug/well” value turned out to be 0.0855, the “Absorbance at 450nm at 0.5ug/well” value was found to be 0.0965, the “Absorbance at 450nm at 1ug/well” value was found to be 0.179 and the “Absorbance at 450nm at 2ug/well” value came out at 0.294.
